From IntAct's records for PubMed 23918659

B1: Vacuolar protein sorting-associated protein 33B (Homo sapiens), Q9H267 (parent)
chain: MAFPHRPDAPELPDFSMLKRLARDQLIYLLEQLPGKKDLFIEADLMSPLDRIANVSILKQHEVDKLYKVENKPALSSNEQLCFLVRPRIKNMRYIASLVNADKLAGRTRKYKVIFSPQKFYACEMVLEEEGIYGDVSCDEWAFSLLPLDVDLLSMELPEFFRDYFLEGDQRWINTVAQALHLLSTLYGPFPNCYGIGRCAKMAYELWRNLEEEEDGETKGRRPEIGHIFLLDRDVDFVTALCSQVVYEGLVDDTFRIKCGSVDFGPEVTSSDKSLKVLLNAEDKVFNEIRNEHFSNVFGFLSQKARNLQAQYDRRRGMDIKQMKNFVSQELKGLKQEHRLLSLHIGACESIMKKKTKQDFQELIKTEHALLEGFNIRESTSYIEEHIDRQVSPIESLRLMCLLSITENGLIPKDYRSLKTQYLQSYGPEHLLTFSNLRRAGLLTEQAPGDTLTAVESKVSKLVTDKAAGKITDAFSSLAKRSNFRAISKKLNLIPRVDGEYDLKVPRDMAYVFGGAYVPLSCRIIEQVLERRSWQGLDEVVRLLNCSDFAFTDMTKEDKASSESLRLILVVFLGGCTFSEISALRFLGREKGYRFIFLTTAVTNSARLMEAMSEVKA
partner: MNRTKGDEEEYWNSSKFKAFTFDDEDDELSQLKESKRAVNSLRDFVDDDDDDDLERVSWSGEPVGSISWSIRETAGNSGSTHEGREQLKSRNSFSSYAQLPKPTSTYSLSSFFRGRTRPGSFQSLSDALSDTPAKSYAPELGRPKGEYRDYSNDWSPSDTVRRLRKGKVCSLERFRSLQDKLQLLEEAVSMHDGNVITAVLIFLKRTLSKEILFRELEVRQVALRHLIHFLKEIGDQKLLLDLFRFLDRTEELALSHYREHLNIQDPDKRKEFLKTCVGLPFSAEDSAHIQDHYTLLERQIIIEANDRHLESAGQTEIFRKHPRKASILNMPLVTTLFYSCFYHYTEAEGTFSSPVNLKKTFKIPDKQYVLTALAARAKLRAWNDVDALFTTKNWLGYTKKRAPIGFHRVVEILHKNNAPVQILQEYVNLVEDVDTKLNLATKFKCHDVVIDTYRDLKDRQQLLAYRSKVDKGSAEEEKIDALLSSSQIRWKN

Variants of: B1
Details: with spe39_human VIPAS39, Q9H9C1

Question: With D252E as the variant, how does the “effect of a mutation on the interaction” value read?
Answer: The value was “decreasing interaction”.

Question: How did the “effect of a mutation on the interaction” value turn out when S243F was run?
Answer: The value was “decreasing interaction”.

Question: How did the “effect of a mutation on the interaction” value turn out when D234H was run?
Answer: The value was “decreasing interaction”.

Variants of: B1
Details: with spe39_human VIPAS39, Q9H9C1
Remark: another data set of the same source

Question: How did the “effect of a mutation on the interaction” value turn out when V251A;D252A;D253A was run?
Answer: The value was “disrupting interaction”.

Question: V235A;D236A;F237A was tested. Which “effect of a mutation on the interaction” value did it give?
Answer: The value was “disrupting interaction”.

Question: For D232A;R233A;D234A, which “effect of a mutation on the interaction” value is on record?
Answer: The value was “disrupting interaction”.

Variants of: B1
Details: with spe39_human VIPAS39, Q9H9C1
Remark: another data set of the same source

Question: Which “effect of a mutation on the interaction” value does the source give for G249V here?
Answer: Its value is “decreasing interaction”.

Question: How did the “effect of a mutation on the interaction” value turn out when L30P was run?
Answer: The value was “decreasing interaction”.

Variants of: B1
Details: with spe39_human VIPAS39, Q9H9C1
Remark: another data set of the same source

Question: L30P was tested. Which “effect of a mutation on the interaction” value did it give?
Answer: The value was “disrupting interaction”.
